Assay results: patent US20170174775A1 (published 2017)

B1: DOM4-130-54 (other)
VL: DIQMTQSPSSLSASVGDRVTITCRASQDIYLNLDWYQQKPGKAPKLLINFGSELQSGVPSRFSGSGYGTDFTLTISSLQPEDFATYYCQPSFYFPYTFGQGTKVEIKR
notes: dAb (VK single variable domain) against IL-1R1; parent
B2: DOM4-130-201 (other)
chain: DIQMTQSPSSLSASVGDRVTITCRASQDIYLNLDWYQQKPGKAPKLLIKFGSELQSGVPSRFSGSGYGTDFTLTISNLQPEDFATYYCQPSFYFPYTFGQGTKVEIKW
B3: DOM4-130-202 (other)
chain: DIQMTQSPSSLSASVGDRVTISCRASQDIYLNLDWYQQKPGKAPKLLISFGSELQSGVPSRFSGSGYGTDFTLTISSLQPEDSATYYCQPSFYYPYTFGQGTKVEIKR

What follows are binders tested against T1, IL-RI (Receptor Binding Assay) (assay: Receptor Binding Assay; inhibition of IL-1 binding to IL-RI).
T1 construct: The construct used in the RBA is not described; it may be the same as the IL-1R1 fusion protein; also called IL-1RI; IL-1R1
T1 sequence (P14778 whole entry, the tested form may be a part): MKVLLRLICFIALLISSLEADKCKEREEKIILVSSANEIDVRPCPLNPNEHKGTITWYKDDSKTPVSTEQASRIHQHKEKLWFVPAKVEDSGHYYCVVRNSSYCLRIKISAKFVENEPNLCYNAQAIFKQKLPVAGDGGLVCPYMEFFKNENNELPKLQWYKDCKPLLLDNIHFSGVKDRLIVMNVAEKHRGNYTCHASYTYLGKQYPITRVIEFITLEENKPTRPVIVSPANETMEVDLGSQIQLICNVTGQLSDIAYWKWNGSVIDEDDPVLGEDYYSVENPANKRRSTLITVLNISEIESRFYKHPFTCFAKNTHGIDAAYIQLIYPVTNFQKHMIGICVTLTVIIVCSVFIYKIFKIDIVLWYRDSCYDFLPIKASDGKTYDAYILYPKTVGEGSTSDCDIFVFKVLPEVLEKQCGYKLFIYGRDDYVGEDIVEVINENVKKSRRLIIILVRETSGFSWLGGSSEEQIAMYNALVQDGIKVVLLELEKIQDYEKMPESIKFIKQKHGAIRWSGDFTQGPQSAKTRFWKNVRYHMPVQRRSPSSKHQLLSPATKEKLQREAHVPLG
Binder B1 has an IC50 of 280 pM.
B2 gave an IC50 of 257 pM.
With B3 the IC50 was 254 pM.
